Laboratory results taken from patent US20090136503A1 (BEIJING COTIMES BIOTECH, published 2009).

Experiments:
[1] = target: T1, TRAIL-R3-Fc fusion protein (human, UniProt O14798 26-221, limits assumed); experiment: ELISA: plate coated with TRAIL-R3-Fc at 1 µg/ml, HRP goat anti-mouse IgG, TMB
T1 construct: The origin of the protein is not described; also called TRAIL-R3-Fc fusion antigen; not shown: human IgG1 Fc
T1 sequence (looked up): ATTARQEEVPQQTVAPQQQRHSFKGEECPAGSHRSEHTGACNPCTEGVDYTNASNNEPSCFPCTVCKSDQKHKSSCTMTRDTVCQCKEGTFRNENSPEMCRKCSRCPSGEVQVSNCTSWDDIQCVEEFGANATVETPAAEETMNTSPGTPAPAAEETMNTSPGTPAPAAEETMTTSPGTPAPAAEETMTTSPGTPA

[2] = target: T2, TRAIL-R2 on the surface of human tumor cells (human, UniProt O14763 56-440); experiment: flow cytometry on Jurkat cells (said to express TRAIL-R2 only, not TRAIL-R1), PE goat anti-mouse IgG1
T2 construct: whole, on cells; also called DR5; CD262

[3] = target: T3, TRAIL-R4-Fc fusion protein (human, UniProt Q9UBN6 56-211); experiment: ELISA: plate coated with TRAIL-R4-Fc at 1 µg/ml, HRP goat anti-mouse IgG, TMB
T3 construct: The origin of the protein is not described; also called TRAIL-R4-Fc fusion antigen; not shown: human IgG1 Fc
T3 sequence (looked up): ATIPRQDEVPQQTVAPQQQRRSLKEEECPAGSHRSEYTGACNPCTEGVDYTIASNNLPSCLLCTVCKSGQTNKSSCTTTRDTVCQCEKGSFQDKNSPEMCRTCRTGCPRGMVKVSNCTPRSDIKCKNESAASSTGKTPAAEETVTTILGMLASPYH

[4] = target: Human IgG1 (control antigen) (human); experiment: ELISA; human IgG1 captured on goat anti-human IgG, antibody at 2 µg/ml
[5] = target: BSA (bovine serum albumin), negative control (bovine, UniProt P02769 25-607); experiment: ELISA: plate coated with BSA (control) at 1 µg/ml, HRP goat anti-mouse IgG, TMB
Chain of BSA (bovine serum albumin), negative control (P02769 25-607 limits assumed): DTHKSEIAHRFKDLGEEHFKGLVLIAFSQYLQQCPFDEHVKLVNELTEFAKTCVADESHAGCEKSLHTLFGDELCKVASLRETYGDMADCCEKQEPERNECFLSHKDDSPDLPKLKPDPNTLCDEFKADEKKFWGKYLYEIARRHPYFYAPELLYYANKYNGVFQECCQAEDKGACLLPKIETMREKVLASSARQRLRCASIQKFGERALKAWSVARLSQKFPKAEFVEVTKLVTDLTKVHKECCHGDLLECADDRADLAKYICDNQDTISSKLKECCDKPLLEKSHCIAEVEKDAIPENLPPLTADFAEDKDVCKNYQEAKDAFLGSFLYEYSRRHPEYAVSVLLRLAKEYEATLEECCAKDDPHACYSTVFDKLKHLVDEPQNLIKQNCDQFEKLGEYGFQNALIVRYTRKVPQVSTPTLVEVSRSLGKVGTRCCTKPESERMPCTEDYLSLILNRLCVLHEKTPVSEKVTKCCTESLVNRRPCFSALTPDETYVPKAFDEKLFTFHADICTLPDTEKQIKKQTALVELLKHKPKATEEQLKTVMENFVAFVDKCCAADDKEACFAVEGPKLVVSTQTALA

[6] = target: TRAIL-R1 on the surface of human tumor cells (human, UniProt O00220 24-468); experiment: cell-based or functional assay

B1: CTB007 murine monoclonal antibody against TRAIL-R1 (hybridoma CGMCC 1733) (antibody, V domains shown)
VH: EVQLQQSGAELVKPGASVKLSCTASGFNIKDTYMHWVKQRPEQGLEWIGRIDPANGNTKYDPKFQGKATITADTSSNTAYLQLSSLTSEDTAVYYCAYYYVSNAWFTYWGQGTLVTVSA
VL: DIQMTQSPASLSVSVGETVTITCRASENIYSNLEWYQQKQGKSPQLLVYAATNLADGVPSRFSGSGSGTQYSLKINSLQSEDFGSYYCQHFWGTWTFGGGTKLEIK
notes: Murine monoclonal antibody; also called Anti-TRAIL-R1 (CTB007); CTB007-HRP
binding result [1]: no binding (tested: 1000 ng/ml)
binding result [2]: no binding
binding result [3]: no binding (tested: 1000 ng/ml)
OD 450 nm/650 nm [4]: 0.026 OD
binding result [5]: no binding (tested: 1000 ng/ml)
IC50 (ng/ml), killing of Carov 3 cells, ATPLite cell viability [6]: 29.5 ng/mL
IC50 (ng/ml), killing of Colo205 cells, ATPLite cell viability [6]: 6.2 ng/mL
IC50 (ng/ml), killing of Du145 cells, ATPLite cell viability [6]: 31.2 ng/mL
IC50 (ng/ml), killing of H-2122 cells, ATPLite cell viability [6]: 25.4 ng/mL
IC50 (ng/ml), killing of MDA231 cells, ATPLite cell viability [6]: 8.2 ng/mL
IC50 (ng/ml), killing of MIAcap cells, ATPLite cell viability [6]: 9.5 ng/mL
